For this test, the target named is N-HGbRL, the N-terminal globin domain of HGbRL from Methylacidiphilum infernorum (Methylacidiphilum infernorum). Kind of test: crystal structure; open, imidazole-bound form; space group C2, two subunits in the asymmetric unit; crystals at 20 °C in 3.5 M 1,6-hexanediol, 0.1 M sodium citrate pH 5.6; 1.94 Å.

This is an account of results in publication PMC4476040.

For the substance “N-HGbRL, the N-terminal globin domain of HGbRL from Methylacidiphilum infernorum (domain or fragment)”, the stoichiometry N was found to be 2.

One may read the stoichiometry N as a count of units in the complex or per binding partner.
